Source: patent US20230024461A1, “METHODS FOR DUAL DNA/PROTEIN TAGGING OF OPEN CHROMATIN” (Beth Israel Deaconess Medical Center, Inc., priority 2019, published 2023)

Key:
[1] = tested on: HEK293T nuclei; test: iDAPT protein labeling, western blot of labeled nuclear lysates; assay type: biochemical, human; conditions: extracted HEK293T nuclei
Protocol: (§1) DNA and protein tagging by iDAPT. All iDAPT proteomic labeling assays were performed as described below unless indicated otherwise. 2.5 μmol MEDS-A/B, 2 μmol enzyme, and 1 μmol hemin chloride per channel were incubated at room temperature for 1 hour. 1e7 cells per sample were washed (500×g, 5 minutes, 4° C.), lysed and triturated in 100 μL LB1 (10 mM Tris-HCl pH 7.5, 10 mM NaCl, 3 mM MgCl2, 1% BSA, 0.01% digitonin, 0.1% Tween-20, 0.1% NP-40, and 1× cOmplete EDTA-free protease inhibitor cocktail [Roche]) for 3 minutes, and subsequently supplemented with an additional 1 mL of LB2 (10 mM Tris-HCl pH 7.5, 10 mM NaCl, 3 mM MgCl2, 1% BSA, 0.1% Tween-20, and 1× protease inhibitor). Nuclei were pelleted (500×g, 10 minutes, 4° C.), resuspended with tagmentation reaction mixture (20% dimethylformamide, 10 mM MgCl2, 20 mM Tris-HCl pH 7.5, 33% 1×PBS, 1% BSA, 0.01% digitonin, 0.1% Tween-20, 500 μM biotin-phenol, 1× protease inhibitor, and 2 pmol enzyme equivalent of enzyme:DNA:heme complex in a total volume of 500 μL), and incubated at 37° C. for 30 minutes with agitation on a thermomixer (1,000 rpm). 5 μL of tagmentation mix was saved for quality assessment as described above for ATAC-seq/iDAPT-seq sample preparation. The remaining nuclear suspension was then washed 2× with 1×PBS supplemented with 500 μM biotin-phenol, 1% BSA, 0.1% Tween-20, and 1× protease inhibitor (3000×g, 5 minutes, 4° C.) and labeled with 1 mM hydrogen peroxide and 500 μM biotin-phenol for 1 minute in 1×PBS with 1× protease inhibitor in a volume of 500 μL. Peroxidation reactions were quenched with 500 μL 2× quenching buffer (10 mM Trolox, 20 mM sodium ascorbate, 20 mM NaN3, and 1× protease inhibitor in 1×PBS). Labeled nuclei were then pelleted, washed with 1× quenching buffer, resuspended in 500 μL RIPA containing protease inhibitors, and frozen at −80° C. Lysates were thawed on ice, sonicated via a Sonic Dismembrator 100 (Fisher Scientific, setting 3, 15 seconds, 4 pulses), and incubated on ice for 30 minutes after the addition of 1 μL benzonase (EMD Millipore). Lysates were clarified by centrifugation (15,000×g, 20 minutes, 4° C.), quantified via the detergent-compatible Bradford assay (Thermo Fisher Scientific), and subjected to either Western blotting or quantitative mass spectrometry analyses as described below. For NB4 cell analysis, an additional endogenous peroxidase blocking step was added after nuclear extraction and before tagmentation: nuclei were resuspended in 500 μL 1×PBS containing 1% BSA, 0.03% hydrogen peroxide, and 0.1% NaN3 and incubated on ice for 30 minutes. Nuclei were pelleted and washed 4× with 1×PBS/1% BSA (3000×g, 5 minutes, 4° C.). Residual hydrogen peroxide was monitored by colorimetric assessment of supernatant via Quantofix peroxides test stick (Sigma).
(§2) Western blotting analysis. Whole cell or nuclear lysates were generated by resuspending cells or nuclei in RIPA (Boston BioProducts) supplemented with 1× cOmplete EDTA-free protease inhibitor cocktail (Roche). […] Lysates were clarified by centrifugation (15,000×g, 20 minutes, 4° C.) and their concentrations quantified via the detergent-compatible Bradford assay (Thermo Fisher Scientific). […] Membranes were blocked with 3% milk in PBS-T and incubated overnight with primary antibody and subsequently with secondary antibody after brief washing with PBS-T. Chemiluminescence was determined by applying ECL Western Blotting detection reagent (GE Healthcare) to membranes and imaging on an Amersham Imager 600 (GE Healthcare). […]

[2] = tested on: K562 nuclei; test: as above; assay type: biochemical, human
Protocol: as §1, §2

B1: TP3: Tn5 transposase-AEAAAKEAAAKA linker-APEX2 peroxidase fusion, C-terminal FLAG; amino acid SEQ ID NO: 27 (protein)
chain: MITSALHRAADWAKSVFSSAALGDPRRTARLVNVAAQLAKYSGKSITISSEGSKAMQEGAYRFIRNPNVSAEAIRKAGAMQTVKLAQEFPELLAIEDTTSLSYRHQVAEELGKLGSIQDKSRGWWVHSVLLLEATTFRTVGLLHQEWWMRPDDPADADEKESGKWLAAAATSRLRMGSMMSNVIAVCDREADIHAYLQDKLAHNERFVVRSKHPRKDVESGLYLYDHLKNQPELGGYQISIPQKGVVDKRGKRKNRPARKASLSLRSGRITLKQGNITLNAVLAEEINPPKGETPLKWLLLTSEPVESLAQALRVIDIYTHRWRIEEFHKAWKTGAGAERQRMEEPDNLERMVSILSFVAVRLLQLRESFTPPQALRAQGLLKEAEHVESQSAETVLTPDECQLLGYLDKGKRKRKEKAGSLQWAYMAIARLGGFMDSKRTGIASWGALWEGWEALQSKLDGFLAAKDLMAQGIKIAEAAAKEAAAKAGKSYPTVSADYQDAVEKAKKKLRGFIAEKRCAPLMLRLAFHSAGTFDKGTKTGGPFGTIKHPAELAHSANNGLDIAVRLLEPLKAEFPILSYADFYQLAGVVAVEVTGGPKVPFHPGREDKPEPPPEGRLPDPTKGSDHLRDVFGKAMGLTDQDIVALSGGHTIGAAHKERSGFEGPWTSNPLIFDNSYFTELLSGEKEGLLQLPSDKALLSDPVFRPLVDKYAADEDAFFADYAEAHQKLSELGFADADYKDDDDK
modifications: C-terminal FLAG
peroxidase-dependent biotin signal [1]: strong peroxidase-dependent biotin signal | biotin labeling [2]: highest levels of labeling
